Source: patent publication US20030175288A1 (GREEN PEPTIDE, published 2003)

target: T1, HLA-A0201 molecule on T2 cells (human); assay: T2 cells with 10 µM peptide, HLA-A2 stained with mAb BB7.2, flow cytometry (relative MFI)
T1 construct: MHC class I molecule without peptide on T2 cells; detected with anti-HLA-A2 mAb BB7.2; also called HLA-A2 molecule
Description: Binding activity of the peptide to the HLA-A0201 molecule was tested using a T2 cell mutant strain (Cancer Res., 54:1071-1076, 1994.) The T2 cell expresses the HLA-A2 molecule on a cell surface without binding to a peptide, because of deficiency of TAP. Specifically, the synthesized peptide (10 μM) and the T2 cells were incubated at 26° C. for 3 h and, subsequently, incubated in 5% CO₂ and 95% air at 37° C. for 3 h. Thus, T2 cells, on whose surface the peptide was presented by HLA-A2, were obtained.

| Binder | MFI |
| --- | --- |
| NVLHFFNAPL (synthetic peptide; also called gene 2 (HNRPL) 501-510) [P9] | 832 |
| LLQDWHVIL (synthetic peptide) [P4] | 1010 |
| IIYDRKFLM (synthetic peptide; also called gene 4 (EIF4EBP1) 52-60) [P15] | 789 |
| DLLSHAFFA (synthetic peptide) [P18] | 657 |
| CLYGNVEKV (synthetic peptide; also called gene 2 (HNRPL) 404-412) [P7] | 783 |
| GLLFLHTRT (synthetic peptide; also called gene 5 (ppMAPkkk) 294-302) [P17] | 660 |
| TLLRKERGV (synthetic peptide; also called gene 3 (WHSC2) 267-275) [P13] | 656 |
| LIADFLSGL (synthetic peptide; also called gene 1 (UBE2V) 85-93) [P3] | 910 |
| LLLLARWEDT (synthetic peptide; also called gene 1 (UBE2V) 64-73) [P2] | 607 |
| ALVEFEDVL (synthetic peptide) [P6] | 819 |

Next, values leading:

| MFI | Binder |
| --- | --- |
| 887 | QILKGLLFL (synthetic peptide; also called gene 5 (ppMAPkkk) 290-298) [P16] |
| 775 | QQLCVYWTV (synthetic peptide) [P19] |
| 637 | ILPRKHHRI (synthetic peptide; also called gene 1 (UBE2V) 208-216) [P5] |
| 571 | RLQEWCSVI (synthetic peptide; positions counted on the gene 1 product; also called UBE2V 43-51; gene 1 43-51) [P1] |
| 591 | RIIYDRKFL (synthetic peptide; also called EIF4EBP1 51-59; gene 4 51-59) [P14] |
| 1090 | ILGELREKV (synthetic peptide; also called gene 3 (WHSC2) 141-149) [P11] |
| 780 | MLPLECQYL (synthetic peptide; also called gene 3 (WHSC2) 157-165) [P12] |
